The values below come from US20160272693A1 (ZEALAND PHARMA A S, published 2016).

*1 amine or outer side, *2 acyl side, *3 side chain or, on linkers, in order; H or OH if unused. Bridges are numbered along the chain shown (N, C = ends). [ ]: non-standard residue; d: D form. The star is where a group is joined. C20 diacid = O=C(O)CCCCCCCCCCCCCCCCCCC(=O)*; γGlu = O=C(O)[C@H](CCC(=O)[*:2])N[*:1]; NMeI = CC[C@H](C)[C@H](NC)C(=O)O; Sar = CNCC(=O)O

This experiment deals with T1, human amylin receptor 3 (hAMYR3), hCTR2 co-expressed with human receptor activity modifying protein 3 (hRAMP3) (human, UniProt P30988 25-474; O60896 24-148).
T1 sequence (looked up) 1: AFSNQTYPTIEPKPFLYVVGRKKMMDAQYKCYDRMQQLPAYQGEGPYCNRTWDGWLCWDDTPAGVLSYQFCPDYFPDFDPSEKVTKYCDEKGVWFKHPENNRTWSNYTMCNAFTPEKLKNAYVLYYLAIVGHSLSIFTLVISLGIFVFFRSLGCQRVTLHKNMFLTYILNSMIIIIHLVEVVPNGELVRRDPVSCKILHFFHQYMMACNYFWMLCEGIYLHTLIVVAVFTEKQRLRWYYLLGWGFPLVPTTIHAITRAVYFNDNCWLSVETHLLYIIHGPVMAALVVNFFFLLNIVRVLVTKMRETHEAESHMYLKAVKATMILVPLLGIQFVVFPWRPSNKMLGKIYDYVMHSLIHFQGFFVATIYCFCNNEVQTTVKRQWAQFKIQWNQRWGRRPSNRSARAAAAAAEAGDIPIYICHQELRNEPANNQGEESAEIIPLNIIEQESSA
T1 sequence (looked up) 2: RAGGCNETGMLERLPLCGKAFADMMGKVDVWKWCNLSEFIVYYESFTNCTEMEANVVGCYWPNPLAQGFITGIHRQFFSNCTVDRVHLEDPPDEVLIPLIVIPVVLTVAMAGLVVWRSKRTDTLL
Kind of experiment: cell-based or functional assay.

B1: [19CD]-isoGlu-R-C( )-GTAT-C( )-ATERLAHFLQRSSF-Gly(Me)-A-Ile(Me)-LSSTEVGSFTP-NH2 (Compd. 39) (peptide)
peptide: {C20 diacid}-[γGlu]RCGTATCATERLAHFLQRSSF[Sar]A[NMeI]LSSTEVGSFTP-NH2
modifications: disulfide 3-8
SMILES: CC[C@H](C)[C@@H](C(=O)N[C@@H](CC(C)C)C(=O)N[C@@H](CO)C(=O)N[C@@H](CO)C(=O)N[C@H](C(=O)N[C@@H](CCC(=O)O)C(=O)N[C@H](C(=O)NCC(=O)N[C@@H](CO)C(=O)N[C@@H](Cc1ccccc1)C(=O)N[C@H](C(=O)N1CCC[C@H]1C(N)=O)[C@@H](C)O)C(C)C)[C@@H](C)O)N(C)C(=O)[C@H](C)NC(=O)CN(C)C(=O)[C@H](Cc1ccccc1)NC(=O)[C@H](CO)NC(=O)[C@H](CO)NC(=O)[C@H](CCCNC(=N)N)NC(=O)[C@H](CCC(N)=O)NC(=O)[C@H](CC(C)C)NC(=O)[C@H](Cc1ccccc1)NC(=O)[C@H](Cc1c[nH]cn1)NC(=O)[C@H](C)NC(=O)[C@H](CC(C)C)NC(=O)[C@H](CCCNC(=N)N)NC(=O)[C@H](CCC(=O)O)NC(=O)[C@@H](NC(=O)[C@H](C)NC(=O)[C@@H]1CSSC[C@H](NC(=O)[C@H](CCCNC(=N)N)NC(=O)CC[C@H](NC(=O)CCCCCCCCCCCCCCCCCCC(=O)O)C(=O)O)C(=O)NCC(=O)N[C@@H]([C@@H](C)O)C(=O)N[C@@H](C)C(=O)N[C@@H]([C@@H](C)O)C(=O)N1)[C@@H](C)O
As to B1, the “hAMYR3 EC50 (nM); cAMP induction” value was found to be 0.22 nM.

B2: [19CD]-isoGlu-R-C( )-GTAT-C( )-ATERLAHFLVRSSF-Gly(Me)-A-Ile(Me)-LSSTEVGSSTP-NH2 (Compd. 38) (peptide)
peptide: {C20 diacid-γGlu}-RCGTATCATERLAHFLVRSSF[Sar]A[NMeI]LSSTEVGSSTP-NH2
modifications: disulfide 2-7
SMILES: CC[C@H](C)[C@@H](C(=O)N[C@@H](CC(C)C)C(=O)N[C@@H](CO)C(=O)N[C@@H](CO)C(=O)N[C@H](C(=O)N[C@@H](CCC(=O)O)C(=O)N[C@H](C(=O)NCC(=O)N[C@@H](CO)C(=O)N[C@@H](CO)C(=O)N[C@H](C(=O)N1CCC[C@H]1C(N)=O)[C@@H](C)O)C(C)C)[C@@H](C)O)N(C)C(=O)[C@H](C)NC(=O)CN(C)C(=O)[C@H](Cc1ccccc1)NC(=O)[C@H](CO)NC(=O)[C@H](CO)NC(=O)[C@H](CCCNC(=N)N)NC(=O)[C@@H](NC(=O)[C@H](CC(C)C)NC(=O)[C@H](Cc1ccccc1)NC(=O)[C@H](Cc1c[nH]cn1)NC(=O)[C@H](C)NC(=O)[C@H](CC(C)C)NC(=O)[C@H](CCCNC(=N)N)NC(=O)[C@H](CCC(=O)O)NC(=O)[C@@H](NC(=O)[C@H](C)NC(=O)[C@@H]1CSSC[C@H](NC(=O)[C@H](CCCNC(=N)N)NC(=O)CC[C@H](NC(=O)CCCCCCCCCCCCCCCCCCC(=O)O)C(=O)O)C(=O)NCC(=O)N[C@@H]([C@@H](C)O)C(=O)N[C@@H](C)C(=O)N[C@@H]([C@@H](C)O)C(=O)N1)[C@@H](C)O)C(C)C
Turning to B2, the “hAMYR3 EC50 (nM); cAMP induction” value is 0.12 nM.

B3: [19CD]-isoGlu-R-C( )-GTAT-C( )-ATERLAHFLHRSSF-Gly(Me)-A-Ile(Me)-LSSTEVGSSTP-NH2 (Compd. 37) (peptide)
peptide: {C20 diacid}-[γGlu]RCGTATCATERLAHFLHRSSF[Sar]A[NMeI]LSSTEVGSSTP-NH2
modifications: disulfide 3-8
SMILES: CC[C@H](C)[C@@H](C(=O)N[C@@H](CC(C)C)C(=O)N[C@@H](CO)C(=O)N[C@@H](CO)C(=O)N[C@H](C(=O)N[C@@H](CCC(=O)O)C(=O)N[C@H](C(=O)NCC(=O)N[C@@H](CO)C(=O)N[C@@H](CO)C(=O)N[C@H](C(=O)N1CCC[C@H]1C(N)=O)[C@@H](C)O)C(C)C)[C@@H](C)O)N(C)C(=O)[C@H](C)NC(=O)CN(C)C(=O)[C@H](Cc1ccccc1)NC(=O)[C@H](CO)NC(=O)[C@H](CO)NC(=O)[C@H](CCCNC(=N)N)NC(=O)[C@H](Cc1c[nH]cn1)NC(=O)[C@H](CC(C)C)NC(=O)[C@H](Cc1ccccc1)NC(=O)[C@H](Cc1c[nH]cn1)NC(=O)[C@H](C)NC(=O)[C@H](CC(C)C)NC(=O)[C@H](CCCNC(=N)N)NC(=O)[C@H](CCC(=O)O)NC(=O)[C@@H](NC(=O)[C@H](C)NC(=O)[C@@H]1CSSC[C@H](NC(=O)[C@H](CCCNC(=N)N)NC(=O)CC[C@H](NC(=O)CCCCCCCCCCCCCCCCCCC(=O)O)C(=O)O)C(=O)NCC(=O)N[C@@H]([C@@H](C)O)C(=O)N[C@@H](C)C(=O)N[C@@H]([C@@H](C)O)C(=O)N1)[C@@H](C)O
In the case of B3, the “hAMYR3 EC50 (nM); cAMP induction” value worked out at 0.07 nM.

B4: [19CD]-isoGlu-R-C( )-GTAT-C( )-ATERLAHFLNRSSF-Gly(Me)-A-Ile(Me)-LSSTEVGSSTP-NH2 (Compd. 35) (peptide)
peptide: {C20 diacid}-[γGlu]RCGTATCATERLAHFLNRSSF[Sar]A[NMeI]LSSTEVGSSTP-NH2
modifications: disulfide 3-8
SMILES: CC[C@H](C)[C@@H](C(=O)N[C@@H](CC(C)C)C(=O)N[C@@H](CO)C(=O)N[C@@H](CO)C(=O)N[C@H](C(=O)N[C@@H](CCC(=O)O)C(=O)N[C@H](C(=O)NCC(=O)N[C@@H](CO)C(=O)N[C@@H](CO)C(=O)N[C@H](C(=O)N1CCC[C@H]1C(N)=O)[C@@H](C)O)C(C)C)[C@@H](C)O)N(C)C(=O)[C@H](C)NC(=O)CN(C)C(=O)[C@H](Cc1ccccc1)NC(=O)[C@H](CO)NC(=O)[C@H](CO)NC(=O)[C@H](CCCNC(=N)N)NC(=O)[C@H](CC(N)=O)NC(=O)[C@H](CC(C)C)NC(=O)[C@H](Cc1ccccc1)NC(=O)[C@H](Cc1c[nH]cn1)NC(=O)[C@H](C)NC(=O)[C@H](CC(C)C)NC(=O)[C@H](CCCNC(=N)N)NC(=O)[C@H](CCC(=O)O)NC(=O)[C@@H](NC(=O)[C@H](C)NC(=O)[C@@H]1CSSC[C@H](NC(=O)[C@H](CCCNC(=N)N)NC(=O)CC[C@H](NC(=O)CCCCCCCCCCCCCCCCCCC(=O)O)C(=O)O)C(=O)NCC(=O)N[C@@H]([C@@H](C)O)C(=O)N[C@@H](C)C(=O)N[C@@H]([C@@H](C)O)C(=O)N1)[C@@H](C)O
Consider B4, for which the “hAMYR3 EC50 (nM); cAMP induction” value was found to be 0.11 nM.

B5: [19CD]-isoGlu-R-C( )-GTAT-C( )-ATERLAHFLERSSF-Gly(Me)-A-Ile(Me)-LSSTEVGSSTP-NH2 (Compd. 36) (peptide)
peptide: {C20 diacid}-[γGlu]RCGTATCATERLAHFLERSSF[Sar]A[NMeI]LSSTEVGSSTP-NH2
modifications: disulfide 3-8
SMILES: CC[C@H](C)[C@@H](C(=O)N[C@@H](CC(C)C)C(=O)N[C@@H](CO)C(=O)N[C@@H](CO)C(=O)N[C@H](C(=O)N[C@@H](CCC(=O)O)C(=O)N[C@H](C(=O)NCC(=O)N[C@@H](CO)C(=O)N[C@@H](CO)C(=O)N[C@H](C(=O)N1CCC[C@H]1C(N)=O)[C@@H](C)O)C(C)C)[C@@H](C)O)N(C)C(=O)[C@H](C)NC(=O)CN(C)C(=O)[C@H](Cc1ccccc1)NC(=O)[C@H](CO)NC(=O)[C@H](CO)NC(=O)[C@H](CCCNC(=N)N)NC(=O)[C@H](CCC(=O)O)NC(=O)[C@H](CC(C)C)NC(=O)[C@H](Cc1ccccc1)NC(=O)[C@H](Cc1c[nH]cn1)NC(=O)[C@H](C)NC(=O)[C@H](CC(C)C)NC(=O)[C@H](CCCNC(=N)N)NC(=O)[C@H](CCC(=O)O)NC(=O)[C@@H](NC(=O)[C@H](C)NC(=O)[C@@H]1CSSC[C@H](NC(=O)[C@H](CCCNC(=N)N)NC(=O)CC[C@H](NC(=O)CCCCCCCCCCCCCCCCCCC(=O)O)C(=O)O)C(=O)NCC(=O)N[C@@H]([C@@H](C)O)C(=O)N[C@@H](C)C(=O)N[C@@H]([C@@H](C)O)C(=O)N1)[C@@H](C)O
For B5, the “hAMYR3 EC50 (nM); cAMP induction” value came out at 0.36 nM.
